According to IntAct's records for PubMed 10713164:

Molecular target: ncor2_human NCOR2 (UniProt Q9Y618)

- effect of a mutation on the interaction: decreasing interaction strength
Substance: Recombining binding protein suppressor of hairless (Homo sapiens), Q06330 E233A;E234A;F235A
